The nature of this series: soluble on expression in E. coli; label from the status in PepcDB or PDB records.
“DGMTKLTFGGHPFLLGFEQLERLVERTAKTASEGYPPFNIEAVAENAYRITLAVAGFREDDIAITVEDRQLVVRGRQAEDPAERVFLHRGIASRAFQRSFVLADGVEVAGATMEHGLLHIDLHRQVPQAVVQTIPIGRNR”: the “soluble on expression in E. coli” value is listed as “not soluble”.
With “MGSDKIHHHHHHMTDDQIHQTDWLQRGRDVLDIEAEGIRAVRDRLGPSFESALALLAGCRGRVVVTGLGKSGLVGRKLAATFSSTGSPAFFLHPVEGAHGDMGSLKADDVVIAISNSGETDELNAILPSLRAIGTPIIALTGRADSSLGRGADIVLDCGVPREACPLGLAPTASTTAVLALGDALAVCLIDWKSFTENDFLRYHPGGSLGQRLRLRVAELMHTEGIPVVNEEAVCEEAVLALDKGGFGAVALTDGGGRLTGILTDGDVRRAVLRGTYGPRVGVTHIMTRNPRFARQTQSVAELIDIMEQKAITVLPITDDDHRLVGLVHLHDLLGKGGVTFAG”, the “soluble on expression in E. coli” value was “not soluble”.
On to “QAPEQRSIRDGILLLHELGALTDDTQADGSPQLTQIGKDLANIPVDPRMARMLVEANTLGCLHSVMVIVSALTIQDVRERPLEFQAQADQAHARFKDTT”, for which the “soluble on expression in E. coli” value is on record as “not soluble”.
As for “MSLAEAVAQGAFGKVISVRGSGARVGLLPSSRLVPSAVRATVGRFVSIRTASSTIIAIITEVSSENLAETDEHIAVASVDLLGEILPGPLRPKFQRGVTNYPTIGDSVDLISSDDLRIVYEPTGSDQIDVGTLQQDPSVIAYVDIEEMLSKHFAVLGSTGVGKSTGVSLLLNEILKSRPALRIFLLDVHNEYGRSFGDKALVLNPRNLKLPFWLFNFEEIVDVLFAGRPGVPEELDILAEVIPVAKGLYVQYTSTDRLGLKRVDPKSIGYTADTPVPYRLVDLISLIDERMGKLENRSSRIIYHKLISRIETVRNDPRYAFMFDNANVGGDTMADVISHLFRLPANGKPMTIMQLAGFPAEVVDSVVSVLCRMAFDFGLWSDGVSPLLFVCEEAHRYAAADRAIGFGPTRKAVSRIAKEGRKYGVYLGLVTQRPAELDATILSQCNTLFAMRLANDRDQSLLRSAVSDAAANLLSFVPSLGTREVLAFGEGVALPTRLRFKEVPAHQLPRSEAAISTVPSAAAGNDMHFVSAVLERWRGATSHRDVPNDPGIAERPLARTLDAPMLQPSLGLDPDRFSLLKKPLREGHHHHHH”, the “soluble on expression in E. coli” value was “soluble”.
In the case of “MKQRQWQGWGPGEQAEQQHYLVQPRALAGGGDIRHVSEFLRASGWRDKSKTCGPLLMESPDRTVRVAYDPYILPGGWTIHGRTGAKGEWSAHLGLQTPVEIVAGLTDALTRPRSAHAPSVWEPLQEQNWHTRFADQNYTATSPDGAAWMQYRQDADGSAMWWTGAKDEEGNGWTAHFTPNTPMHLVQAFSTELAGPDPVMRPRGRVPHSAQIRTWSVSVKPSQLSAWQQARITAARAATWARSSTRGTRPRTTARPHTPTGGARTRRLEHHHHHH”, the “soluble on expression in E. coli” value was “not soluble”.
Turning to “MSLSDGNITFAYSYPIKAFEKFLGYYDRENRIAFNPSISMRTDFSFCLAACRYRKNGKTDTVVLDGYADNKYYKKAKFALDKFRSEYSINGSFDFYIKRYRRYQKAKGLSESSAVAAAVSRALISNVFGDDAAKDDIFVSRYARLVSGSGTRAAHDGISMWLSYPGMDSRDCVAFKVGKSNENLNYGVFPKYSDVATDNAHSIAVNSVFYGTWVSEKFSNVKRLISDHFDINDLLKIGENDMLRLNSILMSGGLIIQTPDSLRILKEILKFKSKNEGFYFTADTGPSIAIFSFDRSLIDEFRENVNDEYIEGSYDFKGYNNEGHHHHHH”, the “soluble on expression in E. coli” value was “not soluble”.
Turning to “GMEPIMRNPEDALLDSWHQNAQAWIDAVRHGAIESRRQVTDQAILLAILGRQPERVLDLGCGEGWLLRALADRGIEAVGVDGDRTLVDAARAAGAGEVHLASYAQLAEAKVPVGKDYDLICANFALLHQDIIELLSAMRTLLVPGGALVIQTLHPWSVADGDYQDGWREESFAGFAGDWQPMPWYFRTLASWLNALDMAGLRLVSLQEPQHPQSAVPQSLLMVAERH”, the “soluble on expression in E. coli” value is reported as “soluble”.
The same measure for “EGSIGNGLDLTGILFGNIDSEGRLLQDDDGEGRGGTGFDAELRENIGSLSKLGLDSMLLEVIDLKEA”: “soluble”.
Take “MSLGRFVRHALITAGTKGLGKQVTEKLLAKGYSVTVTYHSDTTAMETMKETYKDVEERLQFVQADVTKKEDLHKIVEEAMSHFGKIDFLINNAGPYVFERKKLVDYEEDEWNEMIQGNLTAVFHLLKLVVPVMRKQNFGRIINYGFQGADSAPGWIYRSAFAAAKVGLVSLTKTVAYEEAEYGITANMVCPGDIIGEMKEATIQEARQLKEHNTPIGRSGTGEDIARTISFLCEDDSDMITGTIIEVTGAVDVIHREGHHHHHH”: the “soluble on expression in E. coli” value is “soluble”.

Source of the values: the DeepSol protein solubility set.
